Patent publication KR20240052776A (dated 2024)
Substitutions are numbered along the chain they refer to.

Legend:
Assay in all cases: flow cytometry, cell-based binding assay: yeast-displayed scFv with biotinylated MOG protein, streptavidin detection, anti-myc co-staining
[1] = biological target: T1, biotinylated cynomolgus monkey MOG-FC protein (Q9BGS7), expressed in mammalian cells (cynomolgus monkey, UniProt Q9BGS7 30-154, limits assumed, biotinylated (site not stated))
T1 construct: also called cynomolgus MOG-Fc; 사이노몰거스 원숭이 MOG-FC; not shown: Fc part
T1 sequence (looked up): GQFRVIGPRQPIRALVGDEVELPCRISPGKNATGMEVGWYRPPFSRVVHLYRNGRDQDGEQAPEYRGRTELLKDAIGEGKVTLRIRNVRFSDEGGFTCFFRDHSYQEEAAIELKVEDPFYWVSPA

[2] = biological target: T2, biotinylated human MOG-His (Uniprot Q16653), RND Systems (human, UniProt Q16653 30-154, biotinylated (site not stated))
T2 construct: A bought protein (RND Systems); also called 인간 MOG-His; not shown: His tag
T2 sequence (looked up): T1 sequence (looked up) with Q10H, R55K, E60D, I111M, A125G

[3] = biological target: T3, biotinylated mouse MOG-His (Uniprot Q61885), RND Systems (mouse, UniProt Q61885 29-156, limits assumed, biotinylated (site not stated))
T3 construct: A bought protein (RND Systems); also called 마우스 MOG-His; not shown: His tag
T3 sequence (looked up): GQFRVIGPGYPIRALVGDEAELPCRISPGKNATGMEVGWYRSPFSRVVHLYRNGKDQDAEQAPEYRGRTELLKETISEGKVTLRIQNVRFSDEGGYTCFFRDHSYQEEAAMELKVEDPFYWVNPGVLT

- binding result [1]: binds
- binding result [2]: binds
- binding result [3]: binds
B1: anti-MOG scFv of the invention, displayed on yeast cells (MOG-CAR 발현 효모 세포) (scFv, V domains shown)
VH: QVQLVQSGAEVKKPGSSVKVSCKASGGTFSSYAFSWVRQAPGQGLEWMGRIVPVVGTPNYAQKFQGRVTITADESTSTAYMELSSLRSEDTAVYYCARERLYAGYYFDHWGQGTLVTVSS
VL: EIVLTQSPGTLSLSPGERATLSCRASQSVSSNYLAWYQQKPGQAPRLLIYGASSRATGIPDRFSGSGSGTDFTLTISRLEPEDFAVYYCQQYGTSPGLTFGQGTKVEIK
notes: also called MOG-CAR expressing yeast cells
